In patent US20200172956A1 (NATIONAL UNIVERSITY CORPORATION KUMAMOTO UNIVERSITY, published 2020):

Target: T1, type IV collagen α3-SmBiT (fusion protein having SmBiT at the C-terminal of wild-type type IV collagen α3(IV) … (Homo sapiens (Human), UniProt Q01955 43-1670))
T1 construct: also called α3 chain; COL4A3 in pFC36K SmBiT vector
Test: split luciferase (NanoBiT) luminescence in culture supernatant of HEK293T cells co-expressing the domain-deleted α5 fusion with α3 and α4 chains

T1 sequence (Q01955 other isoform, or with tags, fused parts or gaps): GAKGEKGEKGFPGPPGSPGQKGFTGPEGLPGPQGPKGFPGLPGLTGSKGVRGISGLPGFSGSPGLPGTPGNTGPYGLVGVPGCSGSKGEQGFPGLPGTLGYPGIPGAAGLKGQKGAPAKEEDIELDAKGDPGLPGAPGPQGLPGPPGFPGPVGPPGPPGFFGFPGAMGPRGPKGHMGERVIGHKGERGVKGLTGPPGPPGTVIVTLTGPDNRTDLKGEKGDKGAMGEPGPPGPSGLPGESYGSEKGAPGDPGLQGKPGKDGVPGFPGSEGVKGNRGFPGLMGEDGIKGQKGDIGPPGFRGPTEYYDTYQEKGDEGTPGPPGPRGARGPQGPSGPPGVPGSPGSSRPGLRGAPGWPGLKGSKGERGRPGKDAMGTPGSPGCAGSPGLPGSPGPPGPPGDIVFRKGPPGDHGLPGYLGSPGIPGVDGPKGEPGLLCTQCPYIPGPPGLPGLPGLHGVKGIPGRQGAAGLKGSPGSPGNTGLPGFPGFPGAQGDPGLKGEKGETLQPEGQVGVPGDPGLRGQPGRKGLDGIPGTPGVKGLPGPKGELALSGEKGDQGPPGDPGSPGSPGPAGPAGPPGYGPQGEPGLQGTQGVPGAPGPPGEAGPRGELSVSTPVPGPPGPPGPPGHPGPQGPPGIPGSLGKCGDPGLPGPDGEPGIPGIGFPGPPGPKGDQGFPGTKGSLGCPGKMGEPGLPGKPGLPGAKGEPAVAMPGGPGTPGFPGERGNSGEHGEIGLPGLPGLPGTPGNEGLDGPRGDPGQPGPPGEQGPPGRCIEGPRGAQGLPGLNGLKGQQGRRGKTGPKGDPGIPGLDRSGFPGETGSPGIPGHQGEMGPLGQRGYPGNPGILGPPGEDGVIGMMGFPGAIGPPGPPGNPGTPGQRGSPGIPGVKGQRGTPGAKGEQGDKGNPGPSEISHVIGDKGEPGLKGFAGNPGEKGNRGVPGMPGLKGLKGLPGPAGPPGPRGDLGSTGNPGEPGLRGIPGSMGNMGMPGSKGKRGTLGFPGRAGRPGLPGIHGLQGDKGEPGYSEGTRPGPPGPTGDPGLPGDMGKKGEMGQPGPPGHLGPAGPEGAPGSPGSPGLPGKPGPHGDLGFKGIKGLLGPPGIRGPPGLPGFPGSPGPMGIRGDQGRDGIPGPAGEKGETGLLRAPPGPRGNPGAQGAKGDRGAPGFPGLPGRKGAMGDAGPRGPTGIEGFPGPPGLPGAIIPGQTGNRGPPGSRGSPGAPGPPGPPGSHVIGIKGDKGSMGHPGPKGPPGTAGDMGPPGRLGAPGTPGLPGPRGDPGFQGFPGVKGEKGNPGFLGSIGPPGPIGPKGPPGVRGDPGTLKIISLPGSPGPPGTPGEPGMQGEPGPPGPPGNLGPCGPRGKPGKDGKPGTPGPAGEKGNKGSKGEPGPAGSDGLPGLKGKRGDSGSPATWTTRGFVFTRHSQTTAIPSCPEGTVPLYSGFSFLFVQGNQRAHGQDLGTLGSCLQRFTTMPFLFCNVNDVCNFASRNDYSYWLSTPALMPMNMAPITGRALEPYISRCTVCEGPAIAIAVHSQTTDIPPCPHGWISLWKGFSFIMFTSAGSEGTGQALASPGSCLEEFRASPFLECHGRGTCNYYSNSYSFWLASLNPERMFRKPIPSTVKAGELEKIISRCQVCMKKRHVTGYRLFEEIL

B1: fusion protein having a split luciferase fragment at the C terminal of the NC1 domain of wild-type α5 chain (COL domain-deleted α5 chain) (other)
chain: GFLITRHSQTTDAPQCPQGTLQVYEGFSLLYVQGNKRAHGQDLGTAGSCLRRFSTMPFMFCNINNVCNFASRNDYSYWLSTPEPMPMSMQPLKGQSIQPFISRCAVCEAPAVVIAVHSQTIQIPHCPQGWDSLWIGYSFMMHTSAGAEGSGQALASPGSCLEEFRSAPFIECHGRGTCNYYANSYSFWLATVDVSDMFSKPQSETLKAGDLRTRISRCQVCMKRTMVFTLEDFVGDWEQTAAYNLDQVLEQGGVSSLLQNLAVSVTPIQRIVRSGENALKIDIHVIIPYEGLSADQMAQIEEVFKVVYPVDDHHFKVILPYGTLVIDGVTPNMLNYFGRPYEGIAVFDGKKITVTGTLWNGNKIIDERLITPDGSMLFRVTINS
notes: The residue range is converted from nucleotide numbers; also called 4COL (so in the source); probably ΔCOL
B1: no binding.
